Tests used:
GST-CrkL-SH3N [1] = assay: pull-down; conditions: chain shown with the change; PD with GST-CrkL-SH3N, C3G detected by western blot (WB:C3G); parent: 1.0
GST-CrkL-SH3N [2] = assay: pull-down; conditions: chain shown with the change, PD with GST-CrkL-SH3N, C3G detected by western blot (WB:C3G), parent: 1.0
C3G-AAPA (human), Q13905 [3] = target: C3G-AAPA (human), Q13905
[4] = target: Src-phosphorylated C3G-AAAP (pC3G-AAAP) (human), Q13905
[5] = target: Src-phosphorylated C3G-AAPA (pC3G-AAPA) (human), Q13905
[6] = target: Src-phosphorylated C3G-AAPP (pC3G-AAPP) (human), Q13905
C3G-AAAP (human), Q13905 = assay: ITC; single-PRM mutants of C3G in the cell titrated with full-length CrkL or CrkL-SH3N; 25 °C; 1:1 model in SEDPHAT; N is the competent fraction of C3G
C3G-AAPA (human), Q13905 [7] = assay: as above

B1: C3G (full-length, residues 4-1077), Q13905-1 P283A; P284A; L286A; P287A; K289A; P453A; P454A; L456A; P457A; K459A; P540A; P541A; L543A; P544A; K546A (protein)
chain: DSQRSHLSSFTMKLMDKFHSPKIKRTPSKKGKPAEVSVKIPEKPVNKEATDRFLPEGYPLPLDLEQQAVEFMSTSAVASRSQRQKNLSWLEEKEKEVVSALRYFKTIVDKMAIDKKVLEMLPGSASKVLEAILPLVQNDPRIQHSSALSSCYSRVYQSLANLIRWSDQVMLEGVNSEDKEMVTTVKGVIKAVLDGVKELVRLTIEKQGRPSPTSPVKPSSPASKPDGPAELPLTDREVEILNKTTGMSQSTELLPDATDEEVAPPKPPLPGIRVVDNSPAAAAAPAKRQSAPSPTRVAVVAPMSRATSGSSLPVGINRQDFDVDCYAQRRLSGGSHSYGGESPRLSPCSSIGKLSKSDEQLSSLDRDSGQCSRNTSCETLDHYDPDYEFLQQDLSNADQIPQQTAWNLSPLPESLGESGSPFLGPPFQLPLGGHPQPDGPLAPGQQTDTAAAAAEAKRRSAASQTADGSGCRVSYERHPSQYDNISGEDLQSTAPIPSVPYAPFAAILPFQHGGSSAPVEFVGDFTAPESTGDPEKAAPAAEAKNKHMLAYMQLLEDYSEPQPSMFYQTPQNEHIYQQKNKLLMEVYGFSDSFSGVDSVQELAPPPALPPKQRQLEPPAGKDGHPRDPSAVSGVPGKDSRDGSERAPKSPDALESAQSEEEVDELSLIDHNEIMSRLTLKQEGDDGPDVRGGSGDILLVHATETDRKDLVLYCEAFLTTYRTFISPEELIKKLQYRYEKFSPFADTFKKRVSKNTFFVLVRVVDELCLVELTEEILKLLMELVFRLVCNGELSLARVLRKNILDKVDQKKLLRCATSSQPLAARGVAARPGTLHDFHSHEIAEQLTLLDAELFYKIEIPEVLLWAKEQNEEKSPNLTQFTEHFNNMSYWVRSIIMLQEKAQDRERLLLKFIKIMKHLRKLNNFNSYLAILSALDSAPIRRLEWQKQTSEGLAEYCTLIDSSSSFRAYRAALSEVEPPCIPYLGLILQDLTFVHLGNPDYIDGKVNFSKRWQQFNILDSMRCFQQAHYDMRRNDDIINFFNDFSDHLAEEALWELSLKIKPRNITRRKTDREEKT
In the case of B1, the ratio to parent (GST-CrkL-SH3N [1]) is reported as 0.3, the ratio to parent (GST-CrkL-SH3N [2]; C3G-AAAP phosphorylated by Src (phospho AAAP)) is reported as 0.4 and the ratio to parent (GST-CrkL-SH3N [2]) is reported as 0.4.

B2: C3G (full-length, residues 4-1077), Q13905-1 P283A; P284A; L286A; P287A; K289A; P453A; P454A; L456A; P457A; K459A; P608A; P609A; L611A; P612A; K614A (protein)
chain: DSQRSHLSSFTMKLMDKFHSPKIKRTPSKKGKPAEVSVKIPEKPVNKEATDRFLPEGYPLPLDLEQQAVEFMSTSAVASRSQRQKNLSWLEEKEKEVVSALRYFKTIVDKMAIDKKVLEMLPGSASKVLEAILPLVQNDPRIQHSSALSSCYSRVYQSLANLIRWSDQVMLEGVNSEDKEMVTTVKGVIKAVLDGVKELVRLTIEKQGRPSPTSPVKPSSPASKPDGPAELPLTDREVEILNKTTGMSQSTELLPDATDEEVAPPKPPLPGIRVVDNSPAAAAAPAKRQSAPSPTRVAVVAPMSRATSGSSLPVGINRQDFDVDCYAQRRLSGGSHSYGGESPRLSPCSSIGKLSKSDEQLSSLDRDSGQCSRNTSCETLDHYDPDYEFLQQDLSNADQIPQQTAWNLSPLPESLGESGSPFLGPPFQLPLGGHPQPDGPLAPGQQTDTAAAAAEAKRRSAASQTADGSGCRVSYERHPSQYDNISGEDLQSTAPIPSVPYAPFAAILPFQHGGSSAPVEFVGDFTAPESTGDPEKPPPLPEKKNKHMLAYMQLLEDYSEPQPSMFYQTPQNEHIYQQKNKLLMEVYGFSDSFSGVDSVQELAPAAAAAPAQRQLEPPAGKDGHPRDPSAVSGVPGKDSRDGSERAPKSPDALESAQSEEEVDELSLIDHNEIMSRLTLKQEGDDGPDVRGGSGDILLVHATETDRKDLVLYCEAFLTTYRTFISPEELIKKLQYRYEKFSPFADTFKKRVSKNTFFVLVRVVDELCLVELTEEILKLLMELVFRLVCNGELSLARVLRKNILDKVDQKKLLRCATSSQPLAARGVAARPGTLHDFHSHEIAEQLTLLDAELFYKIEIPEVLLWAKEQNEEKSPNLTQFTEHFNNMSYWVRSIIMLQEKAQDRERLLLKFIKIMKHLRKLNNFNSYLAILSALDSAPIRRLEWQKQTSEGLAEYCTLIDSSSSFRAYRAALSEVEPPCIPYLGLILQDLTFVHLGNPDYIDGKVNFSKRWQQFNILDSMRCFQQAHYDMRRNDDIINFFNDFSDHLAEEALWELSLKIKPRNITRRKTDREEKT
In the case of B2, the ratio to parent (GST-CrkL-SH3N [2]; C3G-AAPA phosphorylated by Src (phospho AAPA)) is reported as 0.3.

B3: C3G (full-length, residues 4-1077), Q13905-1 P283A; P284A; L286A; P287A; K289A; P540A; P541A; L543A; P544A; K546A; P608A; P609A; L611A; P612A; K614A (protein)
chain: DSQRSHLSSFTMKLMDKFHSPKIKRTPSKKGKPAEVSVKIPEKPVNKEATDRFLPEGYPLPLDLEQQAVEFMSTSAVASRSQRQKNLSWLEEKEKEVVSALRYFKTIVDKMAIDKKVLEMLPGSASKVLEAILPLVQNDPRIQHSSALSSCYSRVYQSLANLIRWSDQVMLEGVNSEDKEMVTTVKGVIKAVLDGVKELVRLTIEKQGRPSPTSPVKPSSPASKPDGPAELPLTDREVEILNKTTGMSQSTELLPDATDEEVAPPKPPLPGIRVVDNSPAAAAAPAKRQSAPSPTRVAVVAPMSRATSGSSLPVGINRQDFDVDCYAQRRLSGGSHSYGGESPRLSPCSSIGKLSKSDEQLSSLDRDSGQCSRNTSCETLDHYDPDYEFLQQDLSNADQIPQQTAWNLSPLPESLGESGSPFLGPPFQLPLGGHPQPDGPLAPGQQTDTPPALPEKKRRSAASQTADGSGCRVSYERHPSQYDNISGEDLQSTAPIPSVPYAPFAAILPFQHGGSSAPVEFVGDFTAPESTGDPEKAAPAAEAKNKHMLAYMQLLEDYSEPQPSMFYQTPQNEHIYQQKNKLLMEVYGFSDSFSGVDSVQELAPAAAAAPAQRQLEPPAGKDGHPRDPSAVSGVPGKDSRDGSERAPKSPDALESAQSEEEVDELSLIDHNEIMSRLTLKQEGDDGPDVRGGSGDILLVHATETDRKDLVLYCEAFLTTYRTFISPEELIKKLQYRYEKFSPFADTFKKRVSKNTFFVLVRVVDELCLVELTEEILKLLMELVFRLVCNGELSLARVLRKNILDKVDQKKLLRCATSSQPLAARGVAARPGTLHDFHSHEIAEQLTLLDAELFYKIEIPEVLLWAKEQNEEKSPNLTQFTEHFNNMSYWVRSIIMLQEKAQDRERLLLKFIKIMKHLRKLNNFNSYLAILSALDSAPIRRLEWQKQTSEGLAEYCTLIDSSSSFRAYRAALSEVEPPCIPYLGLILQDLTFVHLGNPDYIDGKVNFSKRWQQFNILDSMRCFQQAHYDMRRNDDIINFFNDFSDHLAEEALWELSLKIKPRNITRRKTDREEKT
Work on B3 yielded a ratio to parent (GST-CrkL-SH3N [1]) of 0.4.

B4: C3G (full-length, residues 4-1077), Q13905-1 P283A; P284A; L286A; P287A; K289A; P453A; P454A; L456A; P457A; K459A; P540A; P541A; L543A; P544A; K546A; Y554H (protein)
chain: DSQRSHLSSFTMKLMDKFHSPKIKRTPSKKGKPAEVSVKIPEKPVNKEATDRFLPEGYPLPLDLEQQAVEFMSTSAVASRSQRQKNLSWLEEKEKEVVSALRYFKTIVDKMAIDKKVLEMLPGSASKVLEAILPLVQNDPRIQHSSALSSCYSRVYQSLANLIRWSDQVMLEGVNSEDKEMVTTVKGVIKAVLDGVKELVRLTIEKQGRPSPTSPVKPSSPASKPDGPAELPLTDREVEILNKTTGMSQSTELLPDATDEEVAPPKPPLPGIRVVDNSPAAAAAPAKRQSAPSPTRVAVVAPMSRATSGSSLPVGINRQDFDVDCYAQRRLSGGSHSYGGESPRLSPCSSIGKLSKSDEQLSSLDRDSGQCSRNTSCETLDHYDPDYEFLQQDLSNADQIPQQTAWNLSPLPESLGESGSPFLGPPFQLPLGGHPQPDGPLAPGQQTDTAAAAAEAKRRSAASQTADGSGCRVSYERHPSQYDNISGEDLQSTAPIPSVPYAPFAAILPFQHGGSSAPVEFVGDFTAPESTGDPEKAAPAAEAKNKHMLAHMQLLEDYSEPQPSMFYQTPQNEHIYQQKNKLLMEVYGFSDSFSGVDSVQELAPPPALPPKQRQLEPPAGKDGHPRDPSAVSGVPGKDSRDGSERAPKSPDALESAQSEEEVDELSLIDHNEIMSRLTLKQEGDDGPDVRGGSGDILLVHATETDRKDLVLYCEAFLTTYRTFISPEELIKKLQYRYEKFSPFADTFKKRVSKNTFFVLVRVVDELCLVELTEEILKLLMELVFRLVCNGELSLARVLRKNILDKVDQKKLLRCATSSQPLAARGVAARPGTLHDFHSHEIAEQLTLLDAELFYKIEIPEVLLWAKEQNEEKSPNLTQFTEHFNNMSYWVRSIIMLQEKAQDRERLLLKFIKIMKHLRKLNNFNSYLAILSALDSAPIRRLEWQKQTSEGLAEYCTLIDSSSSFRAYRAALSEVEPPCIPYLGLILQDLTFVHLGNPDYIDGKVNFSKRWQQFNILDSMRCFQQAHYDMRRNDDIINFFNDFSDHLAEEALWELSLKIKPRNITRRKTDREEKT
B4 gave a ratio to parent (GST-CrkL-SH3N [2]) of 0.4.

B5: CrkL, full-length (human), P46109 1-303 (natural protein)
chain: MSSARFDSSDRSAWYMGPVSRQEAQTRLQGQRHGMFLVRDSSTCPGDYVLSVSENSRVSHYIINSLPNRRFKIGDQEFDHLPALLEFYKIHYLDTTTLIEPAPRYPSPPMGSVSAPNLPTAEDNLEYVRTLYDFPGNDAEDLPFKKGEILVIIEKPEEQWWSARNKDGRVGMIPVPYVEKLVRSSPHGKHGNRNSNSYGIPEPAHAYAQPQTTTPLPAVSGSPGAAITPLPSTQNGPVFAKAIQKRVPCAYDKTALALEVGDIVKVTRMNINGQWEGEVNGRKGLFPFTHVKIFDPQNPDENE
In the case of B5, the AC50 of the dose-response activation of the GEF activity of C3G (1 µM) on Rap1b:mant-dGDP (C3G-AAPA (human), Q13905 [3]) is reported as 28.1 µM, the kmax of the dose-response activation of the GEF activity of C3G (1 µM) on Rap1b:mant-dGDP (C3G-AAPA (human), Q13905 [3]) is reported as 9100 M⁻¹ s⁻¹ and the AC50 of the dose-response activation of the GEF activity of C3G (1 µM) on Rap1b:mant-dGDP (C3G-AAPP (human), Q13905) is reported as 23.7 µM. The kmax of the dose-response activation of the GEF activity of C3G (1 µM) on Rap1b:mant-dGDP (C3G-AAPP (human), Q13905) was 13600 M⁻¹ s⁻¹, the AC50 of the dose-response activation of the GEF activity of pC3G (0.2 µM) on Rap1b:mant-dGDP; the text says that pC3G-AAAP was not stimulated by CrkL [4] was 0.6 µM and the kmax of the dose-response activation of the GEF activity of pC3G (0.2 µM) on Rap1b:mant-dGDP; the text says that pC3G-AAAP was not stimulated by CrkL [4] was 0.0045 s^-1 µM^-1. For the same binder, the AC50 of the dose-response activation of the GEF activity of pC3G (0.2 µM) on Rap1b:mant-dGDP [5] was 1.3 µM, the kmax of the dose-response activation of the GEF activity of pC3G (0.2 µM) on Rap1b:mant-dGDP [5] was 0.0269 s^-1 µM^-1 and the AC50 of the dose-response activation of the GEF activity of pC3G (0.2 µM) on Rap1b:mant-dGDP [6] was 2.2 µM. It also gave a kmax of the dose-response activation of the GEF activity of pC3G (0.2 µM) on Rap1b:mant-dGDP [6] of 0.0357 s^-1 µM^-1, a Kd (C3G-AAAP (human), Q13905) of 2 µM and a stoichiometry N (C3G-AAAP (human), Q13905) of 0.55. It also gave a Kd (C3G-AAPA (human), Q13905 [7]) of 2 µM and a stoichiometry N (C3G-AAPA (human), Q13905 [7]) of 0.13.

B6: CrkL-SH3N (residues 125-182), P46109 125-182 (domain or fragment)
chain: LEYVRTLYDFPGNDAEDLPFKKGEILVIIEKPEEQWWSARNKDGRVGMIPVPYVEKLV
For B6, the Kd (C3G-AAPA (human), Q13905 [7]) was 3.5 µM and the stoichiometry N (C3G-AAPA (human), Q13905 [7]) was 0.2.
